Assay results as given in the supplement of paper PMC7877785.
± gives the uncertainty stated by the source.

Assay: self-splicing fitness, log relative to wild type (ln ratio); higher = more splicing; Tetrahymena group I intron in knt gene, E. coli kanamycin selection, DiMSum; sequences stand for … in CUCUCU…GGAGGGAAAAGUUAUCAGGCAUGCACCUGGUAGCUAGUCUUUAAACCAAUAGAUUGCAUCGGUUUAAAAGGCAAGACCGUCAAAUUGCGGGAAAGGGGUCAACAGCCGUUCAGUACCAAGUCUCAGGGGAAACUUUGAGAUGGCCUUGCAAAGGGUAUGGUAAUAAGCUGACGGACAUGGUCCUAACCACGCAGCCAAGUCCUAAGUCAACAGAUCUUCUGUUGAUAUGGAUGCAGUUCACAGACUAAAUGUCGGUCGGGGAAGAUGUAUUCUUCUCAUAAGAUAUAGUCGGACCUCUCCUUAAUGGGAGCUAGCGGAUGAAGUGAUGCAACACUGGAGCCGCUGGGAACUAAUUUGUAUGCGAAAGUAUAUUGAUUAGUUUUGGAGUACUCGUGGUCG
Method in brief: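 Library with all eight P1ex-region intron nucleotides randomised, intron inside the knt kanamycin-resistance gene on pET-22b(+), in E. coli BL21(DE3). Cells grew overnight at 37°C or 30°C on LB agar with or without 25 μg/mL kanamycin (plus 100 μg/mL carbenicillin, 50 μM IPTG, 0.2% rhamnose), in six replicate transformations. Pooled colonies were amplicon-sequenced on Illumina HiSeq 2500. DiMSum fitness is the error-weighted combination of wild-type-normalised replicate fold changes, kanamycin versus none.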

Sequence	self-splicing fitness (ln) (30 °C)	self-splicing fitness (ln) (37 °C)
CGUCAGCAAUAUUACGGAGU	-3.45 ± 0.17	-2.55 ± 0.18
CGUCAGCAAUAUUACGGCAC	-1.8 ± 0.12	-0.799 ± 0.14
CGUCAGCAAUAUUACGGCCA	-0.937 ± 0.083	0.106 ± 0.097
CGUCAGCAAUAUUACGGCCU	-0.913 ± 0.17	-1.79 ± 0.29
CGUCAGCAAUAUUACGGCGU	-4.74 ± 0.34	-0.685 ± 0.19
CGUCAGCAAUAUUACGGCUA	-0.938 ± 0.11	-0.751 ± 0.11
CGUCAGCAAUAUUACGGGAU	-4.7 ± 0.39	-2.66 ± 0.2
CGUCAGCAAUAUUACGGGCU	-1.31 ± 0.078	-0.668 ± 0.082
CGUCAGCAAUAUUACGGGGU	-3.29 ± 0.11	-2.33 ± 0.14
CGUCAGCAAUAUUACGGGUC	-4.23 ± 0.39	-2.73 ± 0.23
CGUCAGCAAUAUUACGGUGG	-1.26 ± 0.071	-0.629 ± 0.096
CGUCAGCAAUAUUACGUAGG	-0.704 ± 0.055	0.23 ± 0.086
CGUCAGCAAUAUUACGUCAA	-2.64 ± 0.11	-1.61 ± 0.1
CGUCAGCAAUAUUACGUCAG	-0.465 ± 0.069	0.175 ± 0.083
CGUCAGCAAUAUUACGUCGG	-0.413 ± 0.042	0.115 ± 0.06
CGUCAGCAAUAUUACGUCGU	-3 ± 0.09	-1.99 ± 0.11
CGUCAGCAAUAUUACGUGCG	-4.56 ± 0.31	-2.21 ± 0.19
CGUCAGCAAUAUUACGUUCC	-2.43 ± 0.16	-1.18 ± 0.23
CGUCAGCAAUAUUACGUUUU	-3.25 ± 0.098	-1.55 ± 0.094
CGUGAGCAAUAUUACGAUAU	-2.77 ± 0.14	-2.71 ± 0.23
CGUGAGCAAUAUUACGAUCG	-3.02 ± 0.27	0.475 ± 0.25
CGUGAGCAAUAUUACGAUUU	–	-2.24 ± 0.29
CGUGAGCAAUAUUACGCAAU	-2.52 ± 0.14	-2.75 ± 0.25
CGUGAGCAAUAUUACGCAUG	-0.06 ± 0.18	-1.13 ± 0.27
CGUGAGCAAUAUUACGCUAU	-2.39 ± 0.17	-2.49 ± 0.23
CGUGAGCAAUAUUACGCUCU	-1.76 ± 0.36	–

Sequence	self-splicing fitness (ln) (30 °C)	self-splicing fitness (ln) (37 °C)
CGUGAGCAAUAUUACGCUUA	–	-2.18 ± 0.35
CGUGAGCAAUAUUACGGAAU	–	-2.84 ± 0.38
CGUGAGCAAUAUUACGGACA	-1.29 ± 0.16	-0.944 ± 0.19
CGUGAGCAAUAUUACGGAGA	-3.88 ± 0.33	-1.57 ± 0.25
CGUGAGCAAUAUUACGGCCA	-2.35 ± 0.49	–
CGUGAGCAAUAUUACGGCUG	-0.246 ± 0.073	0.0364 ± 0.094
CGUGAGCAAUAUUACGGCUU	-3.31 ± 0.18	-3.81 ± 0.33
CGUGAGCAAUAUUACGGGAC	–	-1.88 ± 0.41
CGUGAGCAAUAUUACGGGCC	-1.9 ± 0.32	–
CGUGAGCAAUAUUACGGUAA	–	-2.41 ± 0.25
CGUGAGCAAUAUUACGGUCU	-2.56 ± 0.17	-2.16 ± 0.42
CGUGAGCAAUAUUACGUAAA	–	-2.03 ± 0.33
CGUGAGCAAUAUUACGUACG	–	-0.531 ± 0.23
CGUGAGCAAUAUUACGUACU	-1.7 ± 0.12	-0.396 ± 0.14
CGUGAGCAAUAUUACGUGAG	-0.77 ± 0.072	-1.61 ± 0.097
CGUGAGCAAUAUUACGUGGC	-3.73 ± 0.37	-3.16 ± 0.4
CGUGAGCAAUAUUACGUGGU	-3.02 ± 0.17	-2.42 ± 0.22
CGUGAGCAAUAUUACGUGUU	-3.22 ± 0.3	-2.86 ± 0.32
CGUGAGCAAUAUUACGUUAG	-2.02 ± 0.081	-1 ± 0.094
CGUUAGCAAUAUUACGAAUC	-2.95 ± 0.28	-2.42 ± 0.3
CGUUAGCAAUAUUACGACGG	0.168 ± 0.13	-0.377 ± 0.12
CGUUAGCAAUAUUACGACUC	-0.808 ± 0.25	0.024 ± 0.23
CGUUAGCAAUAUUACGAGAA	-1.93 ± 0.49	-1.45 ± 0.46
CGUUAGCAAUAUUACGAUAA	-2.9 ± 0.26	-1.52 ± 0.22
CGUUAGCAAUAUUACGCAGA	-3.21 ± 0.41	-2.31 ± 0.23
CGUUAGCAAUAUUACGCAUU	-4.27 ± 0.25	-1.29 ± 0.12

Sequence	self-splicing fitness (ln) (30 °C)	self-splicing fitness (ln) (37 °C)
CGUUAGCAAUAUUACGCCGG	-0.8 ± 0.11	-0.767 ± 0.11
CGUUAGCAAUAUUACGCGUA	–	-0.996 ± 0.25
CGUUAGCAAUAUUACGCGUU	-4.08 ± 0.13	-2.39 ± 0.12
CGUUAGCAAUAUUACGCUAC	-1.48 ± 0.24	–
CGUUAGCAAUAUUACGCUAU	-2.29 ± 0.28	–
CGUUAGCAAUAUUACGGGGC	-2.57 ± 0.15	-3.12 ± 0.28
CGUUAGCAAUAUUACGUCAA	–	-1.41 ± 0.38
CGUUAGCAAUAUUACGUCCC	–	-0.641 ± 0.36
CGUUAGCAAUAUUACGUCGA	-2.71 ± 0.19	-1.16 ± 0.2
CGUUAGCAAUAUUACGUUCU	-1.39 ± 0.15	-1.25 ± 0.14
CGUUAGCAAUAUUACGUUGU	-4.22 ± 0.29	-2.78 ± 0.22
CGUUAGCAAUAUUACGUUUC	-3.28 ± 0.2	-2.19 ± 0.21
CGUUAGCAAUAUUACGUUUG	-1.01 ± 0.08	-0.558 ± 0.1
CGUUAGCAAUAUUACGUUUU	-4.77 ± 0.27	-2.99 ± 0.17
CUAAAGCAAUAUUACGAACA	-2.48 ± 0.12	-2.03 ± 0.2
CUAAAGCAAUAUUACGACAC	–	-1.88 ± 0.47
CUAAAGCAAUAUUACGACGU	-3.33 ± 0.28	-0.435 ± 0.19
CUAAAGCAAUAUUACGAGAC	-3.33 ± 0.18	-0.499 ± 0.16
CUAAAGCAAUAUUACGAUCU	-4.75 ± 0.23	-2.5 ± 0.18
CUAAAGCAAUAUUACGCAAG	-1.11 ± 0.089	-0.574 ± 0.12
CUAAAGCAAUAUUACGCACA	-2.11 ± 0.16	-2.11 ± 0.27
CUAAAGCAAUAUUACGCACG	-0.0346 ± 0.092	0.511 ± 0.14
CUAAAGCAAUAUUACGCAGA	-3.64 ± 0.2	-3.29 ± 0.42
CUAAAGCAAUAUUACGCAGC	-3.5 ± 0.33	-2.3 ± 0.44
CUAAAGCAAUAUUACGCCCC	-1.15 ± 0.45	–
CUAAAGCAAUAUUACGCCGC	-2.9 ± 0.22	–

Sequence	self-splicing fitness (ln) (30 °C)	self-splicing fitness (ln) (37 °C)
CUAAAGCAAUAUUACGCGUC	-3.94 ± 0.31	-2.17 ± 0.25
CUAAAGCAAUAUUACGGAAC	-2.36 ± 0.19	-1.42 ± 0.17
CUAAAGCAAUAUUACGGCAG	-0.0254 ± 0.076	-0.422 ± 0.098
CUAAAGCAAUAUUACGGUGU	-4.65 ± 0.25	-3.05 ± 0.21
CUAAAGCAAUAUUACGUGAA	-3.29 ± 0.23	-3.36 ± 0.32
CUAAAGCAAUAUUACGUUAC	-3.78 ± 0.26	-2.06 ± 0.31
CUAAAGCAAUAUUACGUUUU	-4.6 ± 0.26	-2.58 ± 0.21
CUACAGCAAUAUUACGAACU	-4.38 ± 0.24	-2.02 ± 0.25
CUACAGCAAUAUUACGACGA	-2.65 ± 0.15	-2.02 ± 0.18
CUACAGCAAUAUUACGAGGC	–	-1.35 ± 0.3
CUACAGCAAUAUUACGAGUG	-0.714 ± 0.047	-0.418 ± 0.068
CUACAGCAAUAUUACGAUCA	-1.82 ± 0.17	-1.49 ± 0.2
CUACAGCAAUAUUACGAUUU	-4.36 ± 0.22	-1.95 ± 0.14
CUACAGCAAUAUUACGCCGG	-2.19 ± 0.13	-1.26 ± 0.13
CUACAGCAAUAUUACGCGUC	-3.92 ± 0.26	-2.77 ± 0.24
CUACAGCAAUAUUACGCGUG	-1.83 ± 0.076	-1.03 ± 0.089
CUACAGCAAUAUUACGCUAC	-3.78 ± 0.22	-2.25 ± 0.24
CUACAGCAAUAUUACGCUAU	-4.01 ± 0.19	-2.6 ± 0.18
CUACAGCAAUAUUACGCUUU	-3.79 ± 0.25	-2.38 ± 0.16
CUACAGCAAUAUUACGGAAC	-4.6 ± 0.34	-3.47 ± 0.35
CUACAGCAAUAUUACGGACG	-0.196 ± 0.072	0.601 ± 0.1
CUACAGCAAUAUUACGGACU	-1.76 ± 0.17	-1.75 ± 0.19
CUACAGCAAUAUUACGGCAU	-3.6 ± 0.23	-2.34 ± 0.23
